The target in test [1] is recombinant human dynamin-related protein 1 (Drp1), isoform 1 (Homo sapiens, isoform 1, UniProt O00429).
Test [2] has as its target T1, Drp1 isoform 2, endogenous in HeLa cells (Homo sapiens (HeLa), UniProt O00429-3, strain).
T1 construct: also called isoform 2 of Drp1; source: endogenous, HeLa soluble protein fraction
Kind of test: affinity purification with mass spectrometry; D7 and D63 nanotraps against GFP-Trap, soluble protein fractions of HEK293, HeLa and U2OS cells, three replicates; label-free quantification; Drp1 captured by the immobilised Nb. To be noted: one partner purified.

The target of test [3] is T2, GFP-labelled Drp1 deletion construct GTPase-MD (Homo sapiens, UniProt O00429).
T2 construct: Drp1 (DNM1L), human; source: HEK293, transiently transfected, soluble protein fraction
Kind of test: pull-down; domain mapping: D7 or D63 nanotrap (Nb on NHS-sepharose) incubated overnight at 4°C with soluble protein fractions of HEK293 cells transiently expressing GFP-labelled Drp1 constructs; immunoblot with anti-GFP. The note with it: one partner purified.

The target in test [4] is T3, GFP-labelled Drp1 deletion construct GTPase (Homo sapiens, UniProt O00429).
T3 construct: Drp1 (DNM1L), human; also called N-terminal GTPase domain; source: HEK293, transiently transfected, soluble protein fraction
The description is as above. The note with it: one partner purified.

Test [5] addresses T4, GFP-labelled Drp1 deletion construct GTPase-MD-VD (Homo sapiens, UniProt O00429).
T4 construct: Drp1 (DNM1L), human; source: HEK293, transiently transfected, soluble protein fraction
Described as above. To be noted: one partner purified.

Chain of recombinant human dynamin-related protein 1 (Drp1), isoform 1 (O00429 whole entry, canonical isoform): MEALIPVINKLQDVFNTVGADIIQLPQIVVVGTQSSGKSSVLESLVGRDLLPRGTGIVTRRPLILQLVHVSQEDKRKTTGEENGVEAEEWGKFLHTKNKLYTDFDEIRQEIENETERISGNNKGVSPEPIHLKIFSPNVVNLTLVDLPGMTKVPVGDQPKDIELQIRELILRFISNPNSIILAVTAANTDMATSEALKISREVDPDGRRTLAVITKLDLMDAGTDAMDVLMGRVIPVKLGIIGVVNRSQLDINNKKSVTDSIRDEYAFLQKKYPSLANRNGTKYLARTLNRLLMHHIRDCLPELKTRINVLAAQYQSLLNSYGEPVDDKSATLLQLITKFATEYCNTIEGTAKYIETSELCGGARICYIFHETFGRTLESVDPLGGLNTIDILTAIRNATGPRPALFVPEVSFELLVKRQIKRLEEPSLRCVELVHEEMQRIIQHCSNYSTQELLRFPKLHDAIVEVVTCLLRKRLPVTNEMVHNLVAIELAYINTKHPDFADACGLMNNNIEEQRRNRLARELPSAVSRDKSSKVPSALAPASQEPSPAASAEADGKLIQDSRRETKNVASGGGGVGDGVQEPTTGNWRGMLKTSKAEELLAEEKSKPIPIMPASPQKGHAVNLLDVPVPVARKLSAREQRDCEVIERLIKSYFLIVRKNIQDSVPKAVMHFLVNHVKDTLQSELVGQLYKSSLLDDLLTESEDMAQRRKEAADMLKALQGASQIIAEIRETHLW

B1: D49 (VHH)
VHH: EVQLVESGGGWVQPGGSLRLSCSASGFTFRDYVMTWVRQTPGRGLEWVSAIDGSGSKINYLDSVKGRFTISRDNTQAMLYLQMNSLRPDDTAVYYCARKGRGGLGEGTYWGKGTQVTVSS
For the molecule B1, the binding result in test [1] is “binds”.

B2: Drp1-specific nanobody D63 (VHH)
VHH: QVQLVESGGDLVQPGGSLKLSCAVSGVSDSLSSFYLMAWHRQAPGKQREMIADIVSGKATYADSVKGRFTISRDNAENTAYLQMNSLKPEDTAVYYCNVLIQNRSTFQSYWGQGTQVTVSS
notes: Selected by phage display from an immunised alpaca; also called D63 Nb; D63 nanotrap (immobilised on NHS-sepharose); source: E. coli periplasmic extract for the protein ELISA
For B2, the binding result in test [2] was “binds”.

B3: Drp1-specific nanobody D7 (VHH)
VHH: QVQLVESGGGLVQPGGSLRLSCVASGFDFSTYSMTWHRQVLGKERELVASITPGGSRTNVADSVKGRFTISRDNAKNMLYLQMDRLKPEDTGMYYCAQGGYYAEPDYWGKGTRVTVSS
notes: Selected by phage display from an immunised alpaca; also called D7 Nb; D7 nanotrap (immobilised on NHS-sepharose); source: E. coli periplasmic extract for the protein ELISA
Regarding B3, the binding result in test [2], in test [3], in test [4] and in test [5] was “binds” each time.

B4: D258 (VHH)
VHH: EVQLQESGGESVQPGGSLRLSCVVSGTTFSTVAMGWYREVPGKKRELVARISSRGVTFYSDSVEGRFTISKDNDKSTLYLQMNSLETEDTAMYFCAAAGNSEVVLFRPKYWGQGTPVTVSS
Regarding B4, the binding result in test [1] is on record as “binds”.

B5: D187 (VHH)
VHH: HVQLVESGGGLVQAGESLKLSCVASGIPFSSRAMGWYRQTPGKDRELVARISVRGVTFYADSVTGRFAISRDNDRSTLYLQMNSLKSEDTAIYFCAAGDNTQTVLTRPAHWGQGTQVTVSS
As for B5, the binding result in test [1] is “binds”.

B6: D246 (VHH)
VHH: EVQLVESGGGLAQPGGSLRLSCAASGPTDNIYTMGWYRQPPGQSRQFVASVVWSTGVKAYAKFVGGRFRITKDSAKRTVDLQMDSLQPEDTAIYFCNLNDRVTPMSERDYWGQGTPVTVSS
Take B6: the binding result in test [1] is listed as “binds”.

B7: D219 (VHH)
chain: QVQLVESGGGMVQSGGSLSLSCAASGFAFSLYEMSWIRQAQGRGPEWVASINPGSSRTYYTDSVKGRFTISRDNDKNILYLKMNSLKPEDTALYYCARGRTLGIGISSDKGSQVTVSS
Take B7: the binding result in test [1] is “binds”.

B8: D193 (VHH)
VHH: EVQLVDSGGGLVQSGGSLTLACAASVSIDEFPAMTWYRQATGKQRELVGVITKGGATKLADSAKGRFTISRDNAKNMVYLQMTSLKPDDTAVYYCSVPNKVMGWGPDDWWGQGSQVTVSS
In the case of B8, in test [1], the binding result is given as “binds”.

Values taken from paper PMC11140114, “Nanobodies as novel tools to monitor the mitochondrial fission factor Drp1” (Life Science Alliance, 2024).
